Data set [1] has as its system clot formation in plasma. The following applies: cited from earlier work.
The conditions of data set [2]: patient with renal failure; cited from earlier work.
Data set [3] has as its system clot formation in whole blood. Put plainly: Antidote reversal TEG of 11F7T+R9D-14T anticoagulation. Format: cell-based, human. The following applies: blood anticoagulated 1 hour with 11F7T 0.5 μM+R9D-14T 5 μM; protamine 22 μM (4-fold molar excess); average. The procedure:
For the antidote reversal TEGs, whole blood was anticoagulated with a combination of the FXa (0.5 μM) and prothrombin (5 μM) aptamers for 1 hour as described, antidote (10 μL) was added, and the assay was continued until a stable clot was formed. For complete antidote reversal at one hour a 4-fold molar excess of protamine (22 μM) was added, 50 μg of CDP was added, or a 2-fold molar excess of the R9D-14T oligonucleotide (10 μM) in combination with a 3-fold molar excess of the 11F7T antidote oligonucleotide (1.5 μM) was added.
Whole blood was anticoagulated with 11F7T+R9D-14T at a dose that prevents clot formation for greater than three hours, and various antidotes were subsequently added after one hour to assess anticoagulation reversal and resulting clot formation. Both protamine and the β-cyclodextrin containing polymer (CDP) were tested for their ability to function as a universal antidote by simultaneously reversing both aptamers in combination (Oney et al, Nat Med 15:1224-8 (2009)). […] Thus, although the 11F7T+R9D-14T aptamer combination is an extremely potent anticoagulant cocktail that can mimic UFH anticoagulation in an ex vivo oxygenator circuit, the aptamer combination can be rapidly reversed with either a universal antidote or a combination of oligonucleotide antidotes.

For data set [4], the system named is clot formation in whole blood. Put plainly: Thromboelastography (TEG), whole blood stimulated with tissue factor. Type of data set: cell-based, human. The procedure: Blood was drawn from healthy, consented volunteers under a Duke University Institutional Review Board approved protocol and anticoagulated with 3.2% sodium citrate. Whole blood (320 μL) was mixed with anticoagulant (heparin or aptamers) (10 μL) and kaolin (Haemonetics, Niles, Ill.) (10 μL) or CAT PRP reagent (Diagnostica Stago, 0.33 ρM TF final) (10 μL) was added to stimulate clotting. CaCl2 (20 μL) was immediately added to overcome the citrate, the mixture was added to a plain disposable plastic TEG cup (Haemonetics), and the assay was run according to the manufacturer's instructions. Clot formation at 37° C. was measured with a Thromboelastograph Analyzer (Haemonetics, Niles, Ill.) until a stable clot was formed (i.e., a maximum amplitude was reached) or for three hours with the aptamer combinations. The time lag time, α-angle, and maximum amplitude were automatically calculated by the TEG® Analytical Software version 4.2.3 (Haemonetics).
Because kaolin stimulates blood via the intrinsic pathway, it is unlikely that 7S-1 (FVIIa aptamer) would impair clot formation with this type of stimulation; thus, this aptamer was tested in a modified TEG with TF stimulation. CAT platelet rich plasma (PRP) reagent (TF) was diluted to a final concentration of 0.33 ρM TF to stimulate clotting.

Data set [5] has as its system clot formation in whole blood. Put plainly: TEG of whole blood, coagulation triggered by tissue factor (Example I). Type of data set: cell-based. The following applies: TF; FVIIa aptamer 0.5, FIXa aptamer 1.0, FXa aptamer 1.0 micromolar. The procedure: TEG is a waveform generated from serial measurements of the torque transmitted from a small oscillating cup to the tip of a metal pin inserted into the cup by a 360 microliter sample of blood or plasma added to the cup.
A 360 microliter blood sample has been added to the cup. For 180 minutes after the sample is added, the cup oscillates alternatively clockwise and counterclockwise through an arc of 4° 45′ at a frequency of one oscillation cycle—i. e., one clockwise rotation and one counterclockwise rotation—every 10 seconds. The lower end of the pin is immersed by the sample; the upper end is suspended from a torsion wire. The TEG analyzer records a single measurement of rotation-induced torque after each clockwise rotation and after each counterclockwise rotation of the cup. “The torque of the rotating cup is transmitted to the immersed pin only after fibrin-platelet bonding has linked the cup and [the] pin together. The strength of these fibrin-platelet bonds affects the magnitude of the pin motion, such that strong clots move the pin directly in phase with the cup motion. Thus, the magnitude of the output is directly related to the strength of the formed clot . . . . [If] the clot retracts or lyses, these bonds are broken and the transfer of cup motion is diminished. The rotation movement of the pin is converted by a mechanical-electrical transducer to an electrical signal which can be monitored by a computer” (TEG 5000 User Manual, pp 3-4, 1999-2007)). The computer converts the series of electrical signals into the TEG tracing.

Data set [6] concerns clot formation in normal human platelet poor plasma. Put plainly: Prothrombin time (PT) plasma clotting assay. Type of data set: biochemical. The procedure:
(§1) The activated partial thromboplastin time (aPTT) and prothrombin time (PT) assays were performed on a model ST4 mechanical coagulometer (Diagnostica Stago, Parsippany, N.J.) as previously described (Bompiani et al, J Thromb Haemost 10:870-80 (2012)). For the aPTT, 50 μL of normal human platelet poor plasma (PPP) was incubated with 50 μL TriniClot aPTT S (Trinity BioTech, Bray, Co Wicklow, Ireland) at 37° C. for 5 min. Aptamer(s) (5 μL) was added, and the mixture was incubated at 37° C. for another 5 min, and CaCl2 (50 μL) was added to initiate the assay. For the PT, 50 μL of normal human PPP was incubated with 5 μL of aptamer(s) at 37° C. for 5 min. TriniClot PT Excel reagent (Trinity BioTech, Bray, Co Wicklow, Ireland) (100 μL) was added to initiate the reaction. Assays with a combination of two aptamers contain an equimolar concentration of each individual aptamer, and the data shown are the total RNA concentration.
(§2) To compare the anticoagulant effect of these four aptamers, dose-response titrations were performed in several clinical plasma-based clotting assays. The activated partial thromboplastin time (aPTT) and prothrombin time (PT) are plasma clotting assays that are clinically used to probe for abnormalities in the intrinsic and extrinsic coagulation pathways, respectively (Van Cott et al, editors. Jacobs & DeMott laboratory test handbook. 5th ed. Hudson Ohio: Lexi-Comp. p. 327-58 (2001)). These relatively simple assays measure the time until clot formation in platelet poor plasma (PPP) in response to either robust tissue factor (TF), or contact stimulation via negatively charged surfaces (i.e., silica, kaolin, celite). […] At high concentrations, the prothrombin aptamer (R9D-14T) was the most robust anticoagulant and inhibited greater than 96% of prothrombin activity in the aPTT and PT. At 4 μM, R9D-14T increased the aPTT clotting time approximately 18-fold and the PT clotting time greater than 80-fold (exceeded the assay limit of 999 sec). […] At the same dose, the FIXa aptamer (9.3T) inhibited greater than 99% of FIX activity and increased the aPTT clotting time approximately 5.5-fold, while the FVIIa aptamer (7S-1) increased the PT clotting time 3-fold and inhibited greater than 99% of FVII activity (FIGS. 20A and 20B).

Data set [7] deals with thrombin generation in normal human platelet poor plasma. Briefly: Calibrated automated thrombography (CAT). Format: biochemical. The following applies: TF 5 ρM. The procedure:
Normal human platelet poor plasma (80 μL) was mixed with aptamer(s) (10 μL) in an Immunolon 2HB U Bottom Mictrotiter 96-well plate (Thermo Labsystems, Franklin, Mass.) and incubated at 37° C. for 5 min. PPP reagent (Diagnostica Stago, Parsippany, N.J.) (either 1 ρM or 5 ρM TF, 20 μL, Diagnostica Stago) was added, and the mixture was incubated at 37° C. for another 5 min. FluCa (Diagnostica Stago) (10 μL) was added to initiate the assay and thrombin generation was measured for 60 minutes at 37° C. with a Fluoroskan Ascent fluorometer (ThermoLabsystem, Helsinki, Finland) according to the manufacturer's instructions. The amount of thrombin generated was quantified by comparison to an assay with thrombin calibrator reagent (Diagnostica Stago) that has a known activity toward the fluorogenic substrate. The lag time, peak amount of thrombin generated, and endogenous thrombin potential (ETP) were automatically calculated by the Thrombinoscope software (Thrombinoscope BV, the Netherlands).
Thrombin is the final protease formed in the coagulation cascade, and the rate of thrombin generation and the total amount of thrombin generated is associated with blood clot formation and stability (Wolberg, Blood Rev 21:131-42 (2007)). To gain more information about the impact of aptamer anticoagulation on the kinetics of thrombin generation, the individual aptamers were analyzed with calibrated automated thrombography (CAT). The CAT assay measures real-time thrombin generation in plasma by monitoring cleavage of a thrombin-specific fluorogenic substrate in response to TF stimulation (Heruker et al, Pathophysiol Haemost Thromb 33: 4-15 (2003)). The parameters of thrombin generation analyzed include: the lag time (time until thrombin generation begins), the peak (the maximal amount of thrombin generated at a given time) and the endogenous thrombin potential (ETP, the total amount of thrombin generated). Similar to the aPTT and PT clotting assays, all of the individual aptamers dose-dependently impacted the various parameters of thrombin generation (FIG. 21 and Table 1). […] 9.3T minorly impacted all parameters of thrombin generation with the high TF reagent; however, because high concentrations of TF may bypass FIX activity by directly generating FXa, the manufacturer recommends low concentrations of TF for analyzing FIX deficient (i.e, Hemophilia B) plasma in the CAT.

Data set [8] deals with clot formation in normal human platelet poor plasma. Briefly: Activated partial thromboplastin time (aPTT) plasma clotting assay. Format: biochemical. The following applies: aPTT. The procedure:
as §1, §2

In data set [9] the test system is clot formation in whole human blood. Put plainly: TEG of dogbone aptamer in whole human blood. Format: cell-based. The procedure:
Activity of dogbone 4 was tested using thromboelastography (TEG), an assay using whole human blood.

Positions count from the first letter of the chain named. Where “and” joins values, the source holds several entries; their conditions need not be identical. Identical values can stand only once. Like-named read-outs stand apart in the source and are kept apart here. Strand notation (5' to 3'): a small letter for the sugar, then the base; units joined by * are phosphorothioate-linked, units joined directly phosphodiester-linked; [ ] holds rarer units or linkages, { } end groups; capitals alone tell only the bases. r = 2'-OH (RNA); f = 2'-fluoro

Regarding lepirudin, the “clot propagation and strength (in words)” value in data set [1] (10 micrograms/mL, approximately 1.4 micromolar) is “significantly reduce clot propagation and strength”. Moreover, the “time the drug can remain in the circulation” value in data set [2] is greater than 120 h.

As for protamine, the “time to stable clot formation after antidote” value in [3] was no more than 15 min.

In the case of `CC1CNc2c(cccc2S(=O)(=O)N[C@@H](CCCNC(=N)N)C(=O)N2CC[C@@H](C)C[C@@H]2C(=O)O)C1` (stereo partly drawn) [argatroban], in [1] (concentration ten-fold higher than recommended for CPB), the “clot propagation and strength (in words)” value is “did not significantly reduce clot propagation and strength”.

B1: 7S-1: FVIIa aptamer, 2'-fluoropyrimidine modified RNA, SEQ ID NO: 5 (nucleic acid)
chain: rGrGrGrArGrGrAfCrGrAfUrGfCrGrGrAfCfUfCfCfUfCfCrArArGfCrGrAfCfCrArAfCrAfUfCrGrGfUfCfCfCrGfUfUfUfCrArGrAfUfCrArAfCrArGrAfCrGrAfCfUfCrGfCfUrGrArGrGrAfUfCfCrGrArGrA
Take B1: the Angle in data set [4] (RNA 0.12 μM) was 65.2 ± 5.2 deg; in data set [4] (RNA 0.25 μM), 62.4 ± 3.7 deg; in data set [4] (RNA 0.50 μM) it was 61.9 deg and 61.9 ± 3.3 deg. Further, the Lag-time in data set [4] (RNA 0.12 μM) is 4.5 ± 0.6 min; in data set [4] (RNA 0.25 μM), 5.1 ± 1.2 min; in [4] (RNA 0.50 μM), 6.6 min and 6.6 ± 0.8 min; in data set [7] (RNA 1.25 nM), 1.67 ± 0.19 min; in [7] (RNA 2.5 nM), 2.00 ± 0.17 min; in data set [7] (RNA 5 nM), 3.17 ± 0.19 min. Also, the Lag-time was determined as 4.51 ± 0.42 min in data set [7] (RNA 10 nM) and 6.01 ± 0.44 min in [7] (RNA 30 nM). For the same molecule, the “Max. Amplitude” value in [4] (RNA 0.12 μM) was 63.0 ± 3.7 mm; in data set [4] (RNA 0.25 μM), 64.0 ± 2.8 mm; in [4] (RNA 0.50 μM), 63.1 mm and 63.1 ± 2.0 mm. Further, the “clot formation (in words)” value in data set [5] is “none of those aptamers prevented clot formation”. Further, the “increase of PT clotting time” value in data set [6] (4 μM aptamer) is listed as 3 fold. For the same molecule, the FVII activity inhibited entry in [6] (PT, 4 μM) was “greater than 99%”. Further, the ETP in [7] (RNA 1.25 nM) was found to be 1657.33 ± 42.72 nM·min; in data set [7] (RNA 2.5 nM) it was 1603.50 ± 28.00 nM·min; in data set [7] (RNA 5 nM) it was 1656.20 ± 96.89 nM·min; in [7] (RNA 10 nM), 1339.50 ± 21.15 nM·min; in data set [7] (RNA 30 nM), 1523.50 ± 160.63 nM·min. The Peak in data set [7] (RNA 1.25 nM) is recorded as 314.56 ± 14.17 nM; in data set [7] (RNA 2.5 nM), 274.39 ± 29.71 nM; in data set [7] (RNA 5 nM), 238.68 ± 31.03 nM; in data set [7] (RNA 10 nM), 130.54 ± 14.06 nM; in [7] (RNA 30 nM), 199.25 ± 41.13 nM. In addition, the TTP in data set [7] (RNA 1.25 nM) turned out to be 4.28 ± 0.20 min; in data set [7] (RNA 2.5 nM) it was 5.29 ± 0.55 min; in data set [7] (RNA 5 nM) it was 7.34 ± 0.55 min; in [7] (RNA 10 nM) it was 11.01 ± 0.79 min; in data set [7] (RNA 30 nM), 10.80 ± 1.03 min.

B2: 4G dogbone 4: truncate of FX/FII dogbone 4, SEQ ID NO: 24 (nucleic acid)
chain: GGGGAUCACACAGUUCAAACGUAAUAAGCCAAUGUACGAGGCAGACCCCAAAGCCCCAGCGAGAUAAUACUUGGCCCCGCU
modifications: listed as RNA, chemistry not given here
With B2, in data set [8], the “anti-coagulation activity of dogbone 4 truncates (in words)” value is reported as “best anti-coagulation activity of the truncates”.

B3: FX/FII dogbone 4: FX/FII dogbone aptamer of reduced size, SEQ ID NO: 22 (nucleic acid)
chain: B2 chain with G2U, G3C, C47G, C48A
modifications: listed as RNA, chemistry not given here
On to B3, for which the “activity compared to the free combination of aptamers (in words)” value in data set [9] is “comparable or better activity than the free combination of aptamers”; in data set [9] (listed as Dogbone Aptamer 4), “inhibits clot formation as well as the combination of individual Factor II (R9D-14T) and X (11f7T) aptamers”.
